From patent publication US20120258108A1 (AbbVie / Abbott, published 2012)
Residue numbers refer to the chain shown, from its start.

B1: AB334 (antibody, human IgG1, kappa, V domains shown)
VH: QVQLQQSGAELMKPGASVKLSCKATGFTFSNFPMAWVKQRPGHGLEWVATISSSDGTTYYRDSVKGKFTITRDNSSNTLYIQLISLTTEDSAIYYCARGYYNSPFAYWGQGTLLTVSA
VL: DILMTQSPAILSVSPGERVSFSCRASEDIYSNLAWYQQRTNGAPRLLIYDTNNLADGVPSRFSGGGSGTDFTLSINSVESEDIADYYCQQYNNYPPTFGAGTKLELKR
notes: CDR-grafted parent antibody
B2: AB285 (antibody, human IgG1, kappa, V domains shown)
VH: EVTLRESGPALVKPTQTLTLTCTASGYTFTNYGMNWVRQPPGKGLEWVGWINTYTGEPTYAADFKRRFTFSLDTSKSQAVLTMTNMDPVDTATYYCAKYPHYYGSSHWYFDVWGQGTTVTVSS
VL: DIVMTQSPDSLAVSLGERATINCSASQDISNYLNWYQQKPGQAPKVLIYFTSSLHSGVPDRFSGSGSGTDFTLTISSLQAEDVAVYYCQQYSTVPWTFGGGTKVEIKR
notes: CDR-grafted parent antibody; also called VEGF (AB057)
B3: DVD1720 (bispecific antibody)
heavy: not shown
light: EIVMTQSPGTLSLSPGERATLSCRASQGIRNYLAWYQQKPGQAPRLLIYAASTLQSGVPDRFSGSGSGTDFTLTISRLEPEDFAVFYCQRYNRAPYTFGQGTKVEIKRTVAAPDVQMTQSPSSLSASVGDRVTITCTSSQNIVHSNGNTYLEWYQQKPGKSPKLLIYKVSNRFSGVPSRFSGSGSGTDFTLTISSLQPEDVATYYCFQVSHVPYTFGQGTKVEIKRTVAAPSVFIFPPSDEQLKSGTASVVCLLNNFYPREAKVQWKVDNALQSGNSQESVTEQDSKDSTYSLSSTLTLSKADYEKHKVYACEVTHQGLSSPVTKSFNRGEC
B4: AB331 (antibody, human IgG1, kappa, V domains shown)
VH: QVQLQQSGAELMKPGASVKLSCKVTGGSISSSSYYWGWIKQRPGHGLEWIGDIYYTGSTYYNPSLKSKVTITVDTSSNTFYIQLISLTTEDSAIYYCARQALAMGGGSDKWGQGTLLTVSA
VL: DYLLTQSPAILSVSPGERVSFSCSGQRLGDKYASWYQQRTNGSPRLVIYEDSKRPSGIPSRFSGGNSGDDATLSINSVESEDIADYYCQAWDRDTGVFGAGTKLELKR
notes: CDR-grafted parent antibody
B5: AB287 (antibody, human IgG1, kappa, V domains shown)
VH: EVTLRESGPALVKPTQTLTLTCTVSGGSISSSSYYWGWIRQPPGKGLEWIGDIYYTGSTYYNPSLKSRVTISVDTSKNQFVLTMTNMDPVDTATYYCARQALAMGGGSDKWGQGTTVTVSS
VL: DYVLTQSPDSLAVSLGERATINCSGQRLGDKYASWYQQKPGQSPKLVIYEDSKRPSGIPDRFSGSNSGDDATLTISSLQAEDVAVYYCQAWDRDTGVFGGGTKVEIKR
notes: CDR-grafted parent antibody
B6: AB316 (antibody, human IgG1, kappa, V domains shown)
VH: EVQLVESGGGLVQPANSLKLSCAVSGGSISSSSYYWGWIRQSPKKGLEWIGDIYYTGSTYYNPSLKSRVTISVDTAKNTFYLQMDSLRSEDTATYYCARQALAMGGGSDKWGQGVLVTVSS
VL: DYRLTQSPASLSASLGETVNIECSGQRLGDKYASWYQQKPGKSPQLVIYEDSKRPSGIPSRFSGSNSGDQASLKINSLQSEDVATYYCQAWDRDTGVFGGGTKLELKR
notes: CDR-grafted parent antibody
B7: AB299 (antibody, human IgG1, kappa, V domains shown)
VH: EVQLVESGGGLVQPGGSLRLSCAASGFTFSNFPMAWVRQAPGKGLEWVATISSSDGTTYYRDSVKGRFTISRDNSKNTLYLQMNSLRAEDTAVYYCARGYYNSPFAYWGQGTLVTVSS
VL: DIQMTQSPSSLSASVGDRVTITCRASEDIYSNLAWYQQKPGKAPKLLIYDTNNLADGVPSRFSGSGSGTDFTLTISSLQPEDFATYYCQQYNNYPPTFGQGTKVEIKR
notes: CDR-grafted parent antibody
B8: AB319 (antibody, human IgG1, kappa, V domains shown)
VH: B7 VH with G15A, G16N, R19K, A40S, G42K, S75A, N84D, A88S, V93T, T112V
VL: DIRMTQSPASLSASLGETVNIECRASEDIYSNLAWYQQKPGKAPQLLIYDTNNLADGVPSRFSGSGSGTQFSLKINSLQSEDVATYYCQQYNNYPPTFGGGTKLELKR
notes: CDR-grafted parent antibody
B9: AB309 (antibody, human IgG1, kappa, V domains shown)
VH: B7 VH with G16R, S75A, T78S
VL: B7 VL with F83V
notes: CDR-grafted parent antibody
B10: DVD1731 (bispecific antibody, human IgG1, kappa)
heavy: not shown
light: DIQMTQSPSSLSASVGDRVTITCRASEDIYSNLAWYQQKPGKAPKLLIYDTNNLADGVPSRFSGSGSGTDFTLTISSLQPEDVATYYCQQYNNYPPTFGQGTKVEIKRTVAAPDIRMTQSPASLSASLGETVNIECSASQDISNYLNWYQQKPGKAPQVLIYFTSSLHSGVPSRFSGSGSGTQFSLKINSLQSEDVATYYCQQYSTVPWTFGGGTKLELKRTVAAPSVFIFPPSDEQLKSGTASVVCLLNNFYPREAKVQWKVDNALQSGNSQESVTEQDSKDSTYSLSSTLTLSKADYEKHKVYACEVTHQGLSSPVTKSFNRGEC
notes: DVD-Ig
B11: AB281 (antibody, human IgG1, kappa, V domains shown)
VH: EVTLRESGPALVKPTQTLTLTCTASGFTFDDYAMHWVRQPPGKGLEWVSAITWNSGHIDYADSVEGRFTISRDNSKNQLVLTMTNMDPVDTATYYCAKVSYLSTASSLDYWGQGTTVTVSS
VL: DIVMTQSPDSLAVSLGERATINCRASQGIRNYLAWYQQKPGQAPKLLIYAASTLQSGVPDRFSGSGSGTDFTLTISSLQAEDVAVYYCQRYNRAPYTFGGGTKVEIKR
notes: CDR-grafted parent antibody; also called TNF (AB057)
B12: AB289 (antibody, human IgG1, kappa, V domains shown)
VH: EVQLVQSGTEVKKPGESLKISCKASGFTFSNFPMAWVRQMPGKGLEWVATISSSDGTTYYRDSVKGQFTISRDNSFNTLFLQWSSLKASDTAMYYCARGYYNSPFAYWGQGTMVTVSS
VL: EIVMTQSPATLSVSPGERATLSCRASEDIYSNLAWYQQKPGQAPRLLIYDTNNLADDVPARFSGSGSGTEFTLTISSLQSEDFAVYYCQQYNNYPPTFGQGTRLEIKR
notes: CDR-grafted parent antibody
B13: DVD1713 (bispecific antibody, human IgG1, kappa)
heavy: not shown
light: DIVMTQSPDSLAVSLGERATINCRASEDIYSNLAWYQQKPGQAPKLLIYDTNNLADGVPDRFSGSGSGTDFTLTISSLQAEDVAVYYCQQYNNYPPTFGGGTKVEIKRTVAAPEIVMTQSPATLSVSPGERATLSCSASQDISNYLNWYQQKPGQAPRVLIYFTSSLHSDVPARFSGSGSGTEFTLTISSLQSEDFAVYYCQQYSTVPWTFGQGTRLEIKRTVAAPSVFIFPPSDEQLKSGTASVVCLLNNFYPREAKVQWKVDNALQSGNSQESVTEQDSKDSTYSLSSTLTLSKADYEKHKVYACEVTHQGLSSPVTKSFNRGEC
notes: DVD-Ig
B14: AB290 (antibody, human IgG1, kappa, V domains shown)
VH: EVTLRESGPALVKPTQTLTLTCTASGFTFSNFPMAWVRQPPGKGLEWVATISSSDGTTYYRDSVKGRFTISRDNSKNQLVLTMTNMDPVDTATYYCARGYYNSPFAYWGQGTTVTVSS
VL: DIVMTQSPDSLAVSLGERATINCRASEDIYSNLAWYQQKPGQAPKLLIYDTNNLADGVPDRFSGSGSGTDFTLTISSLQAEDVAVYYCQQYNNYPPTFGGGTKVEIKR
notes: CDR-grafted parent antibody
B15: AB307 (antibody, human IgG1, kappa, V domains shown)
VH: EVQLLESGGGLVQPGGSLRLSCAVSGGSISSSSYYWGWIRQAPGKGLEWIGDIYYTGSTYYNPSLKSRVTISVDTSKNTFYLQMNSLRAEDTAVYYCARQALAMGGGSDKWGQGTLVTVSS
VL: EYVLTQSPGTLSLSPGERATLSCSGQRLGDKYASWYQQKPGQSPRLVIYEDSKRPSGIPDRFSGSNSGDDATLTISRLEPEDFAVFYCQAWDRDTGVFGQGTKVEIKR
notes: CDR-grafted parent antibody
B16: AB306 (antibody, human IgG1, kappa, V domains shown)
VH: B15 VH with L5V, G16R, S76A, T79S
VL: DYQLTQSPSSLSASVGDRVTITCSGQRLGDKYASWYQQKPGKSPKLVIYEDSKRPSGIPSRFSGSNSGDDATLTISSLQPEDVATYYCQAWDRDTGVFGQGTKVEIKR
notes: CDR-grafted parent antibody

Key:
Recombinant Human DLL4 = Recombinant Human DLL4 (human, UniProt Q9NR61 27-524); test: SPR (BIACORE)
Recombinant Human DLL4, sequence (Q9NR61 27-524 limits assumed): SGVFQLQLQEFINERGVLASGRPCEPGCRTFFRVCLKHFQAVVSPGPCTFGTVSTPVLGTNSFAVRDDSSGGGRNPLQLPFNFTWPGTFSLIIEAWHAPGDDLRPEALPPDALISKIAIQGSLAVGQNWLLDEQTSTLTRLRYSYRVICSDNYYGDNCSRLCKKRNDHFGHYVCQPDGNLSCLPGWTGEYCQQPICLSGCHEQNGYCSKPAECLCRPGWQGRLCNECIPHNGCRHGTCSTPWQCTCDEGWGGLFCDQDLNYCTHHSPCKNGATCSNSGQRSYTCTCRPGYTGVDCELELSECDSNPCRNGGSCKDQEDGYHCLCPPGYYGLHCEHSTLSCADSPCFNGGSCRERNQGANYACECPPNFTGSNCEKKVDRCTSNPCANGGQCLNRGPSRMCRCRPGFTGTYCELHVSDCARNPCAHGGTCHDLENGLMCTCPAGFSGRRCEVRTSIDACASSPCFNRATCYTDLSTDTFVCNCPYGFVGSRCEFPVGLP
Procedure: (§1) The BIACORE assay (Biacore, Inc, Piscataway, N.J.) determines the affinity of antibodies or DVD-Ig with kinetic measurements of on-rate and off-rate constants. Binding of antibodies or DVD-Ig to a target antigen (for example, a purified recombinant target antigen) was determined by surface plasmon resonance-based measurements with a Biacore® 1000 or 3000 instrument (Biacore® AB, Uppsala, Sweden) using running HBS-EP (10 mM HEPES [pH 7.4], 150 mM NaCl, 3 mM EDTA, and 0.005% surfactant P20) at 25° C. All chemicals were obtained from Biacore® AB (Uppsala, Sweden) or otherwise from a different source as described in the text. For example, approximately 5000 RU of goat anti-mouse IgG, (Fcγ), fragment specific polyclonal antibody (Pierce Biotechnology Inc, Rockford, Ill.) diluted in 10 mM sodium acetate (pH 4.5) is directly immobilized across a CM5 research grade biosensor chip using a standard amine coupling kit according to manufacturer's instructions and procedures at 25 μg/ml. Unreacted moieties on the biosensor surface are blocked with ethanolamine. Modified carboxymethyl dextran surface in flowcell 2 and 4 is used as a reaction surface. Unmodified carboxymethyl dextran without goat anti-mouse IgG in flow cell 1 and 3 is used as the reference surface. For kinetic analysis, rate equations derived from the 1:1 Langmuir binding model are fitted simultaneously to association and dissociation phases of all eight injections (using global fit analysis) with the use of Biaevaluation 4.0.1 software. Purified antibodies or DVD-Ig are diluted in HEPES-buffered saline for capture across goat anti-mouse IgG specific reaction surfaces. Antibodies or DVD-Ig to be captured as a ligand (25 μg/ml) are injected over reaction matrices at a flow rate of 5 μl/min. The association and dissociation rate constants, kₒₙ (M⁻¹ s⁻¹) and koff (s⁻¹) are determined under a continuous flow rate of 25 μl/min. Rate constants are derived by making kinetic binding measurements at different antigen concentrations ranging from 10-200 nM. The equilibrium dissociation constant (M) of the reaction between antibodies or DVD-Igs and the target antigen is then calculated from the kinetic rate constants by the following formula: KD=koff/kₒₙ. Binding is recorded as a function of time and kinetic rate constants are calculated.

[1] = biological target: Recombinant Human VEGF 165 (human, UniProt P15692-4 27-191); test: SPR (BIACORE)
Recombinant Human VEGF 165, sequence (P15692 other isoform, or with tags, fused parts or gaps limits assumed): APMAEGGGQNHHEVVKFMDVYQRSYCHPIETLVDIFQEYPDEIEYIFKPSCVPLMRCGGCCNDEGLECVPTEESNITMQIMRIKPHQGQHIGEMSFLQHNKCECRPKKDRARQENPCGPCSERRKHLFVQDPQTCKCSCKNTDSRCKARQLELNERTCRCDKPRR
Procedure: as §1

[2] = biological target: T1, Recombinant Human TNFα/TNFSF1A (human, UniProt P01375 77-233); test: cell-based or functional assay
T1 sequence (P01375 77-233 limits assumed): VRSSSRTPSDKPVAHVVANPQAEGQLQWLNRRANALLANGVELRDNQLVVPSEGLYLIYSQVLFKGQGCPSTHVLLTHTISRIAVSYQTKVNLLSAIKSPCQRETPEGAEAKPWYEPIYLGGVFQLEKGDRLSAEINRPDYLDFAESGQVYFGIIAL

[3] = biological target: T1, Recombinant Human TNFα/TNFSF1A; test: SPR (BIACORE)
Procedure: as §1

Row | Binder | Kd (Recombinant Human DLL4) [nM] | koff (Recombinant Human DLL4) [s⁻¹] | kon (Recombinant Human DLL4) [M⁻¹ s⁻¹] | also measured
1 | B1 | 14 | 0.0055 | 390000 | 
2 | B2 |  |  |  | Kd [1]: < 0.001 nM; koff [1]: < 1e-06 s⁻¹; kon [1]: 1e+06 M⁻¹ s⁻¹
3 | B3 |  |  |  | N-terminal VD TNFα Neutralization Assay EC50 nM (L929 cells) [2]: 0.026 nM
4 | B4 | 2.3 | 0.00018 | 76000 | 
5 | B5 | 1.5 | 0.00012 | 84000 | 
6 | B6 | 1 | 9.2e-05 | 89000 | 
7 | B7 | 24 | 0.0039 | 160000 | 
8 | B8 | 20 | 0.002 | 100000 | 
9 | B9 | 22 | 0.0028 | 130000 | 
10 | B10 | 22 | 0.0028 | 120000 | Kd [1]: 0.5 nM; koff [1]: 4.5e-05 s⁻¹; kon [1]: 89000 M⁻¹ s⁻¹
11 | B11 |  |  |  | TNFα Neutralization Assay EC50 nM (L929 cells) [2]: 0.104 nM; Kd [3]: 0.088 nM; koff [3]: 0.0001 s⁻¹; kon [3]: 1.2e+06 M⁻¹ s⁻¹
12 | B12 | 21 | 0.0055 | 260000 | 
13 | B13 | 31 | 0.0029 | 92000 | Kd [1]: 0.1 nM; koff [1]: 7.7e-05 s⁻¹; kon [1]: 760000 M⁻¹ s⁻¹
14 | B14 | 20 | 0.0039 | 200000 | 
15 | B15 | 1 | 9.5e-05 | 93000 | 
16 | B16 | 2.2 | 0.00015 | 68000 | 
